Data taken from PMC3074190 (Molecular carcinogenesis, 2010).

Key:
[1] = biological target: β-catenin bait (BD fusion) (human) (UniProt P35222); test: two-hybrid
[2] = biological target: T1, GST-β-catenin-S37A (human, UniProt P35222 1-781, S37A); test: pull-down
T1 sequence (looked up): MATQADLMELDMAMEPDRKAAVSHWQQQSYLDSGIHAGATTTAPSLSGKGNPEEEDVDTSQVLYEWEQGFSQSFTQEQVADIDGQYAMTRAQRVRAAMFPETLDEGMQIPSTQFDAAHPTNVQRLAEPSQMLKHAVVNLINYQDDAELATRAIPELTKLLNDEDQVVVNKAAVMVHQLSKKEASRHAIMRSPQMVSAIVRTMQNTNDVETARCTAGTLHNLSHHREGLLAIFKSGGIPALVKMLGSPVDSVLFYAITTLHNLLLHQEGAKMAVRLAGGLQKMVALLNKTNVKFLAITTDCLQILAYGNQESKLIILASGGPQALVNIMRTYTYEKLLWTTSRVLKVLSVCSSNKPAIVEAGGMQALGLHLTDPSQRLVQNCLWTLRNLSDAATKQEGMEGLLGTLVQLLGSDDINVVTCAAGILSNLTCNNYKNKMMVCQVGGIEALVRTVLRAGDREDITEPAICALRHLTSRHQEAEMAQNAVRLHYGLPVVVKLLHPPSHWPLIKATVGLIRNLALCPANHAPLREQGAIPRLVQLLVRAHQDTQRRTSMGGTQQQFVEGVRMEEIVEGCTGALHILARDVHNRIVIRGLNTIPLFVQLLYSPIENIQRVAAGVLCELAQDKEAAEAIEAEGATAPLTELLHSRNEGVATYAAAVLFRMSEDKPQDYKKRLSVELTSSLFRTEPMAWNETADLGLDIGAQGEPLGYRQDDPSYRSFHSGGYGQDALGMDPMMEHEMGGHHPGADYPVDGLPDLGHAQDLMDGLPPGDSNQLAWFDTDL

Binder	fold increase of the two-hybrid signal with 1,25D over vehicle [1] [fold]	fold increase of the two-hybrid signal with LCA over vehicle [1] [fold]	band intensity with GST-β-catenin, fold over GST-only control [2] [fold]
VDR prey (AD fusion), wild type (natural protein) MEAMAASTSLPDPGDFDRNVPRICGVCGDRATGFHFNAMTCEGCKGFFRRSMKRKALFTCPFNGDCRITKDNRRHCQACRLKRCVDIGMMKEFILTDEEVQRKREMILKRKEEEALKDSLRPKLSEEQQRIIAILLDAHHKTYDPTYSDFCQFRPPVRVNDGGGSHPSRPNSRHTPSFSGDSSSSCSDHCITSSDMMDSSSFSNLDLSEEDSDDPSVTLELSQLSMLPHLADLVSYSIQKVIGFAKMIPGFRDLTSEDQIVLLKSSAIEVIMLRSNESFTMDDMSWTCGNQDYKYRVSDVTKAGHSLELIEPLIKFQVGLKKLNLHEEEHVLLMAICIVSPDRPGVQDAALIEAIQDRLSNTLQTYIRCRHPPPGSHLLYAKMIQKLADLRSLNEEHSKQYRCLSFQPECSMKLTPLVLEVFGNEIS	12	8	
human vitamin D receptor, full-length wild type (F/M4 allele), 35S-methionine labelled (natural protein, UniProt P11473 4-427, looked up, 35S-methionine labelled) MAASTSLPDPGDFDRNVPRICGVCGDRATGFHFNAMTCEGCKGFFRRSMKRKALFTCPFNGDCRITKDNRRHCQACRLKRCVDIGMMKEFILTDEEVQRKREMILKRKEEEALKDSLRPKLSEEQQRIIAILLDAHHKTYDPTYSDFCQFRPPVRVNDGGGSHPSRPNSRHTPSFSGDSSSSCSDHCITSSDMMDSSSFSNLDLSEEDSDDPSVTLELSQLSMLPHLADLVSYSIQKVIGFAKMIPGFRDLTSEDQIVLLKSSAIEVIMLRSNESFTMDDMSWTCGNQDYKYRVSDVTKAGHSLELIEPLIKFQVGLKKLNLHEEEHVLLMAICIVSPDRPGVQDAALIEAIQDRLSNTLQTYIRCRHPPPGSHLLYAKMIQKLADLRSLNEEHSKQYRCLSFQPECSMKLTPLVLEVFGNEIS			8.3
VDR Δ1–88, N-terminally truncated VDR, 35S-methionine labelled (domain or fragment, human, UniProt P11473 89-427, looked up, 35S-methionine labelled) MMKEFILTDEEVQRKREMILKRKEEEALKDSLRPKLSEEQQRIIAILLDAHHKTYDPTYSDFCQFRPPVRVNDGGGSHPSRPNSRHTPSFSGDSSSSCSDHCITSSDMMDSSSFSNLDLSEEDSDDPSVTLELSQLSMLPHLADLVSYSIQKVIGFAKMIPGFRDLTSEDQIVLLKSSAIEVIMLRSNESFTMDDMSWTCGNQDYKYRVSDVTKAGHSLELIEPLIKFQVGLKKLNLHEEEHVLLMAICIVSPDRPGVQDAALIEAIQDRLSNTLQTYIRCRHPPPGSHLLYAKMIQKLADLRSLNEEHSKQYRCLSFQPECSMKLTPLVLEVFGNEIS			7.1
